Test in all cases: SIMPL ELISA, bait-IN/prey-CIC
In general terms: ELISA stands for enzyme-linked immunosorbent assay.

Assay [1] has as its target RPA3 (prey, CIC format) (human) (UniProt P35244).
For assay [2], the target named is S100A7 (prey, CIC format) (human) (UniProt P31151).
The target in assay [3] is CRADD (prey, CIC format) (human) (UniProt P78560).
Assay [4] has as its target NCK1 (prey, CIC format) (human) (UniProt P16333).
Assay [5] concerns the target T1, VAV1 (prey, CIC format) (human) (UniProt P15498).
T1 sequence (looked up): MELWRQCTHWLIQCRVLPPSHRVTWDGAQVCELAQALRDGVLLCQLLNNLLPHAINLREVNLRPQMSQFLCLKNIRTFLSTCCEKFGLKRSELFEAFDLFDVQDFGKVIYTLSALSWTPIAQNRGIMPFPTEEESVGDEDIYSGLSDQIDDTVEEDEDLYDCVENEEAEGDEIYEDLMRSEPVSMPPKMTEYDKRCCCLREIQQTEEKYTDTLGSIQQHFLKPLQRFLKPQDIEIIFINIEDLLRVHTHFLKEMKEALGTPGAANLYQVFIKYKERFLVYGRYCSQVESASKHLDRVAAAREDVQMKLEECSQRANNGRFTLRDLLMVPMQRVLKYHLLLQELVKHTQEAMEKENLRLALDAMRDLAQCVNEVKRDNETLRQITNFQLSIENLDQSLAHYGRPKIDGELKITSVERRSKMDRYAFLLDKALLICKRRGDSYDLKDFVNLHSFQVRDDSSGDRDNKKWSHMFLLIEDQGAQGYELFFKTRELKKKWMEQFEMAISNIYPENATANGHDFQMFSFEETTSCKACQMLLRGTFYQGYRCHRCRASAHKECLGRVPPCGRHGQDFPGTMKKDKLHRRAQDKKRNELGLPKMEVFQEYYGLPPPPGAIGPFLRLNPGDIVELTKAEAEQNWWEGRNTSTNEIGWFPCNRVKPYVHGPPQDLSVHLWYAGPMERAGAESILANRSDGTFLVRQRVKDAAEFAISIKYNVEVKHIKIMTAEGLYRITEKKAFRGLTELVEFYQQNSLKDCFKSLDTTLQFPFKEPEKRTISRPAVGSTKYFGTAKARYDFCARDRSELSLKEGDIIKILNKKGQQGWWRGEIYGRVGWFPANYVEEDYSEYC

The target in assay [6] is FGFR1 (prey, CIC format) (human) (UniProt P11362).
Sequence of FGFR1 (prey, CIC format) (human) (P11362 22-822 limits assumed): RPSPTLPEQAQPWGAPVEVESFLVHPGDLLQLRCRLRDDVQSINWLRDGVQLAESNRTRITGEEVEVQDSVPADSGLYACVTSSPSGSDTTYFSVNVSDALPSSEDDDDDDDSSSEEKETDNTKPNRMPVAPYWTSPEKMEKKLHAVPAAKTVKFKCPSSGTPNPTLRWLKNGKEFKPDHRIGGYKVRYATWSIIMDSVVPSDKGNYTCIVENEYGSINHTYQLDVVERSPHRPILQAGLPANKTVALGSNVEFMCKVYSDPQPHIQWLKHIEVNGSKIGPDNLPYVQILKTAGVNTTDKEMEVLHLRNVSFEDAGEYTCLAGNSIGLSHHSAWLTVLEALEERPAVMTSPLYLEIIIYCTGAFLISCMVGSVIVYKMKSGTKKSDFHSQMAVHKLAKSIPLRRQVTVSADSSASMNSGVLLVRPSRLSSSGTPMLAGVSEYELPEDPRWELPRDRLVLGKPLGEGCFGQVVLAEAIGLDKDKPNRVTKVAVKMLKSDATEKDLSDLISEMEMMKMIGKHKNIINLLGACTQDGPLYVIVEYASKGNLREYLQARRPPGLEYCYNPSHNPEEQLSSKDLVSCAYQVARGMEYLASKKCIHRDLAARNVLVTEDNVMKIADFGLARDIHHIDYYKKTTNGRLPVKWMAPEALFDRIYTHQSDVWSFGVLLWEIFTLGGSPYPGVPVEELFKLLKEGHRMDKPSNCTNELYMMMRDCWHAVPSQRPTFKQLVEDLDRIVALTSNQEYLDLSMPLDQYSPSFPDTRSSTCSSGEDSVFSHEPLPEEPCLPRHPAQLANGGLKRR
Assay [7] concerns the target LGALS3BP (prey, CIC format) (human) (UniProt Q08380).
The target of assay [8] is LSM2 (prey, CIC format) (human) (UniProt Q9Y333).
Sequence of LSM2 (prey, CIC format) (human) (Q9Y333 whole entry): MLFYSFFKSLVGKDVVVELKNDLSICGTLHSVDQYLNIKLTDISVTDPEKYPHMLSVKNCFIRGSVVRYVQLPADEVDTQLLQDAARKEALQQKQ
Assay [9] deals with CD58 (prey, CIC format) (human) (UniProt P19256).
Sequence of CD58 (prey, CIC format) (human) (P19256 29-250 limits assumed): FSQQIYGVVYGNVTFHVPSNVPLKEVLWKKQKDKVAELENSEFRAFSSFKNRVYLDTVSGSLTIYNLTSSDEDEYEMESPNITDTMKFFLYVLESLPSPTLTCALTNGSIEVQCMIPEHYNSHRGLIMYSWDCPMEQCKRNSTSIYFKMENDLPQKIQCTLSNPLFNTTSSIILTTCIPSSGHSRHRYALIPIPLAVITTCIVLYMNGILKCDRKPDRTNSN
Assay [10] addresses GTF2F2 (prey, CIC format) (human) (UniProt P13984).
The target of assay [11] is HGS (prey, CIC format) (human) (UniProt O14964).
The target of assay [12] is T2, NRG1 (prey, CIC format) (human) (UniProt Q02297).
T2 sequence (looked up): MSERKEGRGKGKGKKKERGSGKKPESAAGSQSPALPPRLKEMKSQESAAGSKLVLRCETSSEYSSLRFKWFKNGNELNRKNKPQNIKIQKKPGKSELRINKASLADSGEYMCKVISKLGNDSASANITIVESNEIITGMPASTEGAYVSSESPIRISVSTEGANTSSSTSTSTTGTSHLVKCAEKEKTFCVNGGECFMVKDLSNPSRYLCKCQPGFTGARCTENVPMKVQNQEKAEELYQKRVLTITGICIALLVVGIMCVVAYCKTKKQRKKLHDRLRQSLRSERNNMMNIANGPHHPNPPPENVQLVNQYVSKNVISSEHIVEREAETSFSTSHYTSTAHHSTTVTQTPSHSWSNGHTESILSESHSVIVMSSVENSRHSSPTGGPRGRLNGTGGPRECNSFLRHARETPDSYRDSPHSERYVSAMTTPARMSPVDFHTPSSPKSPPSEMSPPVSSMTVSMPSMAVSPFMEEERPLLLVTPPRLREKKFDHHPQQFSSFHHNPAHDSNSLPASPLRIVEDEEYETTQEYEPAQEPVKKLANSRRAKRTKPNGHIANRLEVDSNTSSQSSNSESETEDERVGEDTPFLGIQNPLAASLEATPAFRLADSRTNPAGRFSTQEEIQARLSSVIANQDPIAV

The target in assay [13] is T3, PEX19 (prey, CIC format) (human) (UniProt P40855).
T3 sequence (looked up): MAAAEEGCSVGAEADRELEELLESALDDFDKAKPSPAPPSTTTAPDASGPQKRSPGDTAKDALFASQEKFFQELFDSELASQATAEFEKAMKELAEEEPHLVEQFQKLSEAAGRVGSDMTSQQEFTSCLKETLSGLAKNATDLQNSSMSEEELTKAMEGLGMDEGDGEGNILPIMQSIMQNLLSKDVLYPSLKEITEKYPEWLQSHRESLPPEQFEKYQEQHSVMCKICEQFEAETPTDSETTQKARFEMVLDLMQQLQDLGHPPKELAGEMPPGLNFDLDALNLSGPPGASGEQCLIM

The target in assay [14] is EZR (prey, CIC format) (human) (UniProt P15311).
In assay [15] the target is SRC (prey, CIC format) (human) (UniProt P12931).
Assay [16] concerns the target GRB2 (prey, CIC format) (human) (UniProt P62993).
The target in assay [17] is SMAD4 (prey, CIC format) (human) (UniProt Q13485).
Sequence of SMAD4 (prey, CIC format) (human) (Q13485 whole entry): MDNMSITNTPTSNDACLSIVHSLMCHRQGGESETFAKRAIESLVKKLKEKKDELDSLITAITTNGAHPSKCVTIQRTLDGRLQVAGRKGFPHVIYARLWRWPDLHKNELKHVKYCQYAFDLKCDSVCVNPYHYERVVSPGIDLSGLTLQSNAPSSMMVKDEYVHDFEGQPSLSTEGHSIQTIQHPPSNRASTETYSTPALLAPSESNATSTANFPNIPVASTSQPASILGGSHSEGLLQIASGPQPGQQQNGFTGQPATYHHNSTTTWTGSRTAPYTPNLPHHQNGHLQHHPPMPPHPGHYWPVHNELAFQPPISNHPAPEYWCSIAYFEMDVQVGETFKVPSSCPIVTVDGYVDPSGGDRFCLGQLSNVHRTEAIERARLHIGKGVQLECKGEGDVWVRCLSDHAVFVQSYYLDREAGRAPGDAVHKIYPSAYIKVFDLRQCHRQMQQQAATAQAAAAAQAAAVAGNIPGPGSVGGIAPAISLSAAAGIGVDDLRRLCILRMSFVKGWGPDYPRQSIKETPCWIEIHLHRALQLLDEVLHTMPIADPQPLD
The target in assay [18] is CDK6 (prey, CIC format) (human) (UniProt Q00534).
Assay [19] concerns the target UBE2I (prey, CIC format) (human) (UniProt P63279).
In assay [20] the target is PTK2 (prey, CIC format) (human) (UniProt Q05397).
Sequence of PTK2 (prey, CIC format) (human) (Q05397 whole entry): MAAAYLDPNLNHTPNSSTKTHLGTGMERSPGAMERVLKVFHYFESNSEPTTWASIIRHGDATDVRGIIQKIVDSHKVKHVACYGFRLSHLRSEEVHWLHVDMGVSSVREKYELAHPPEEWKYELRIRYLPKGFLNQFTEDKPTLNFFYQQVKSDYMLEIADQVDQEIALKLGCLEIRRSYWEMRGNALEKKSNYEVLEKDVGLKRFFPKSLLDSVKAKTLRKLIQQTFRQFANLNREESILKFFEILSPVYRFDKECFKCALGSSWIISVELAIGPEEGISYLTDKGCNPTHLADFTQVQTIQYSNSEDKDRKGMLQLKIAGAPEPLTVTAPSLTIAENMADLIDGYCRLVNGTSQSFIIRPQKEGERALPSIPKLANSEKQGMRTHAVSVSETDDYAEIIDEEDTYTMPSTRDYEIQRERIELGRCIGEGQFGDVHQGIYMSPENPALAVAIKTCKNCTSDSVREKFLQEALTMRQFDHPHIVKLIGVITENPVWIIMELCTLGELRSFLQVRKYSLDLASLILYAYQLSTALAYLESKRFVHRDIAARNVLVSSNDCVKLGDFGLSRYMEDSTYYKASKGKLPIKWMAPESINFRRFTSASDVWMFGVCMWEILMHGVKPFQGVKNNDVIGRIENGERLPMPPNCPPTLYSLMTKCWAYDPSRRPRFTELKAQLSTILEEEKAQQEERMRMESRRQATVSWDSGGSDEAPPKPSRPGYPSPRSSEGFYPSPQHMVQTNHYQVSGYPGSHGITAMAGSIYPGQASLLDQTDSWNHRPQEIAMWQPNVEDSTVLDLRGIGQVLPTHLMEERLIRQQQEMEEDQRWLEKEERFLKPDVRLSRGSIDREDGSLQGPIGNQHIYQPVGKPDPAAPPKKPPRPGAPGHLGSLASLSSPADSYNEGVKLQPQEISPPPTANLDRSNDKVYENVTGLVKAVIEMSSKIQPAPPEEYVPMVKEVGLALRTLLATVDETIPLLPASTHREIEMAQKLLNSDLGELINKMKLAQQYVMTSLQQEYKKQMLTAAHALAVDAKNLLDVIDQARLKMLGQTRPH
Assay [21] deals with T4, NOD1 (prey, CIC format) (human) (UniProt Q9Y239).
T4 sequence (looked up): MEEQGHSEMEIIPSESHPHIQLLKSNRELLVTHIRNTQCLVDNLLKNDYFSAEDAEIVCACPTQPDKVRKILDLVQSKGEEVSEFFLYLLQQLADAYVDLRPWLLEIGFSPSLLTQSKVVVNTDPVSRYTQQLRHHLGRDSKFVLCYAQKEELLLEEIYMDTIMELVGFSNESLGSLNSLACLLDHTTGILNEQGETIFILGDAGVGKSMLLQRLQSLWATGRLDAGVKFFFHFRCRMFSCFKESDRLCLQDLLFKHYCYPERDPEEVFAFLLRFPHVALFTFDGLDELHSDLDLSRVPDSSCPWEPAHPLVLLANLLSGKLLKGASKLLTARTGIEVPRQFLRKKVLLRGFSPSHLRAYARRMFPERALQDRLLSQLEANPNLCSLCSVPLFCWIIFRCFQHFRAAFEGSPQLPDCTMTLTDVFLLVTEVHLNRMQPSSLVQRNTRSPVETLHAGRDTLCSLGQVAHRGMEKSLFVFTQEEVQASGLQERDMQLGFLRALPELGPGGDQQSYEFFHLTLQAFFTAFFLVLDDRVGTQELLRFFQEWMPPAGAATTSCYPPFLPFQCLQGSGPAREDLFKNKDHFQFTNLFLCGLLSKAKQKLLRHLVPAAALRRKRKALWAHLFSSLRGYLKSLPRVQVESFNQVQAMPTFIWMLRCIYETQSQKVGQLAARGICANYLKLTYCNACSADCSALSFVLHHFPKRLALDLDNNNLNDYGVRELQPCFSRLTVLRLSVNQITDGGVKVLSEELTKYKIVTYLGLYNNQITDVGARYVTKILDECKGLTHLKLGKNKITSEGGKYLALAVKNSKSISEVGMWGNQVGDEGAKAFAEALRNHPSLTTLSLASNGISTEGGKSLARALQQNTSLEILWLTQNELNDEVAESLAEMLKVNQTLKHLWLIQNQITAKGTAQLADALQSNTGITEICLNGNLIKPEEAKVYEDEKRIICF

For assay [22], the target named is RAD23A (prey, CIC format) (human) (UniProt P54725).
For assay [23], the target named is TCL1A (prey, CIC format) (human) (UniProt P56279).
Sequence of TCL1A (prey, CIC format) (human) (P56279 whole entry): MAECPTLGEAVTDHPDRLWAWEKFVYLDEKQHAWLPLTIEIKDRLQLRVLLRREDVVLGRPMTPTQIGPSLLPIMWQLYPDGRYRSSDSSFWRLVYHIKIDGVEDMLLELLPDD
For assay [24], the target named is T5, LAT (prey, CIC format) (human) (UniProt O43561).
T5 sequence (looked up): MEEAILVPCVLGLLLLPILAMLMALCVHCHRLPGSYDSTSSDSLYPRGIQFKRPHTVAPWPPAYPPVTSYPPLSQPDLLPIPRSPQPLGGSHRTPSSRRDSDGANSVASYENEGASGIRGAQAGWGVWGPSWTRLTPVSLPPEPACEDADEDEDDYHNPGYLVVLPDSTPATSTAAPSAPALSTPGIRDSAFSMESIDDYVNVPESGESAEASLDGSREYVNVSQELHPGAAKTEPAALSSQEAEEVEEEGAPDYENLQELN

The target of assay [25] is T6, PEX3 (prey, CIC format) (human) (UniProt P56589).
T6 sequence (looked up): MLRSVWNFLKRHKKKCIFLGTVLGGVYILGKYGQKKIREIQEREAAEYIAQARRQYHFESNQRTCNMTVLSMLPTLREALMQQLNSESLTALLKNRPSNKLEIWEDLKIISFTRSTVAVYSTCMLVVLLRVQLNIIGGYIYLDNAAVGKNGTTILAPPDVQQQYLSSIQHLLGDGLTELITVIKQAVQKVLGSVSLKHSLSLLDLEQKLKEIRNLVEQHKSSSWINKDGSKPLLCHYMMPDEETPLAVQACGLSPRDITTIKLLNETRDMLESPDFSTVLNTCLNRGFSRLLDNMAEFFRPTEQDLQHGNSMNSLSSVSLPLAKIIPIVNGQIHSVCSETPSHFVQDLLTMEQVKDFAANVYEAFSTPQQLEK

Assay [26] concerns the target PDGFRB (prey, CIC format) (human) (UniProt P09619).

Sequence of CRADD (prey, CIC format) (human) (P78560 whole entry): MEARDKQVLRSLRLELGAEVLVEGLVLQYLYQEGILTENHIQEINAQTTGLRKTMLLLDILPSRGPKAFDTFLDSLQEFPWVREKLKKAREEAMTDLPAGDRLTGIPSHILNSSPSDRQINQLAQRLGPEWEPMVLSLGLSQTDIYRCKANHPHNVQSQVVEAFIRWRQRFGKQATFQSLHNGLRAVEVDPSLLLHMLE
Sequence of CASP2 (bait, IN format) (P42575 whole entry): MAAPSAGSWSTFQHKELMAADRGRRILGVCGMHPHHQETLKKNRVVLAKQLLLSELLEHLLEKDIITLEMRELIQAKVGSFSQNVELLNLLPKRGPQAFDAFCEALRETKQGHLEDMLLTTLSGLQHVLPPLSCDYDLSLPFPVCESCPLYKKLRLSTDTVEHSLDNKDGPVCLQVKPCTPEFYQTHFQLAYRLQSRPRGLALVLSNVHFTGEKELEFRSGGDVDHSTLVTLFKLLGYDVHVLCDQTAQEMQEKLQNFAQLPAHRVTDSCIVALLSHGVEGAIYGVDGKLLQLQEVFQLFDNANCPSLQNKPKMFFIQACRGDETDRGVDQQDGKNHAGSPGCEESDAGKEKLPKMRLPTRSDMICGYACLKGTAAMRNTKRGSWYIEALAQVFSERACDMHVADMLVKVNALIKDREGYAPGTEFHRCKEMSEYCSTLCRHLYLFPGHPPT
Sequence of UBE2I (prey, CIC format) (human) (P63279 whole entry): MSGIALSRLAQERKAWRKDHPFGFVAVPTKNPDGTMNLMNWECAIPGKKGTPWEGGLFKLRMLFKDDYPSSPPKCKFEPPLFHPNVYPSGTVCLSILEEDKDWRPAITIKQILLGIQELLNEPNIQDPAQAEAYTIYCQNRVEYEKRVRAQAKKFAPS
Sequence of LGALS3BP (prey, CIC format) (human) (Q08380 19-585 limits assumed): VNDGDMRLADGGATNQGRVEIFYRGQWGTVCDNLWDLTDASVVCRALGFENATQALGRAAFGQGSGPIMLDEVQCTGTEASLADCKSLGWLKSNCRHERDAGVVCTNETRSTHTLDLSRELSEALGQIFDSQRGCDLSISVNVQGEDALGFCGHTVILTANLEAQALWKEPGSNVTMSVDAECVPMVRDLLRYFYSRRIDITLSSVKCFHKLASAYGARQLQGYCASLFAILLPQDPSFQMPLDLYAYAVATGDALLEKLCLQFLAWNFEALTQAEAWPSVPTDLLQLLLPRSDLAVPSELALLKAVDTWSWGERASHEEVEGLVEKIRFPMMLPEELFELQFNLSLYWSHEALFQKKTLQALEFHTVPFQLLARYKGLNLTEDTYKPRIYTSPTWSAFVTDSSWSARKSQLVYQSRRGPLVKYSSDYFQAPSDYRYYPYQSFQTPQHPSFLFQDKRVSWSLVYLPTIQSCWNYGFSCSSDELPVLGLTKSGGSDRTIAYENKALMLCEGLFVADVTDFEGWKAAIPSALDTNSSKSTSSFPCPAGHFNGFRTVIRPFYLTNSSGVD
Sequence of GTF2F2 (prey, CIC format) (human) (P13984 whole entry): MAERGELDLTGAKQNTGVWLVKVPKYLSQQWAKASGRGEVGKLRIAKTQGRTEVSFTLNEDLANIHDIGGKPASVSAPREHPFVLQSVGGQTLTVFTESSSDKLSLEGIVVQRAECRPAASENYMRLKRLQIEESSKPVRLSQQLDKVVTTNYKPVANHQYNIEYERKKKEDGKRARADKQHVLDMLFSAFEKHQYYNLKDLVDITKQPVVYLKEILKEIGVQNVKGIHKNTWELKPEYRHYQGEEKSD
Sequence of S100A7 (prey, CIC format) (human) (P31151 whole entry): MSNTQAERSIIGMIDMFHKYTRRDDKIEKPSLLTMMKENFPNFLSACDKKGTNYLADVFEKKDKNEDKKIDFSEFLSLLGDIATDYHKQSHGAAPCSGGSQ
Sequence of GRB2 (prey, CIC format) (human) (P62993 whole entry): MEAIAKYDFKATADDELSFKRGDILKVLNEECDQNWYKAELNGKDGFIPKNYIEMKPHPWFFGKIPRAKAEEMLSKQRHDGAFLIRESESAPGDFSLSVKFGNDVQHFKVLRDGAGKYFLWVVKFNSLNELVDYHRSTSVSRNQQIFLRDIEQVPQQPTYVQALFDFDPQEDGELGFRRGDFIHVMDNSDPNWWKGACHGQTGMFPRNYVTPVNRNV

As for “RPA2 (bait, IN format) (from UniProt P15927 1-270)”, the results for the PLU mean in assay [1] and in assay [2] were 2.72 and 0.0606, respectively.
Take “LCP2 (bait, IN format) (from UniProt Q13094 1-533)”: the PLU mean in assay [3] worked out at 0.193; in assay [4], 0.662; in assay [5], 0.789.
For “LSM3 (bait, IN format) (from UniProt P62310 1-102)”, the PLU mean in assay [6] is 0.272; in assay [7], 0.129; in [8], 3.03.
With “LGALS3 (bait, IN format) (from UniProt P17931 1-250)”, the figures for the PLU mean in assay [7] and in assay [8] were 0.248 and 0.162, respectively.
Regarding “CD2 (bait, IN format) (from UniProt P06729 25-351) (receptor)”, the PLU mean in assay [9] was 0.972; in assay [10], 0.299; in assay [11] it was 0.253.
Consider “CASP2 (bait, IN format) (from UniProt P42575 1-452)”, for which the PLU mean amounted to 2.45 in [3] and 0.696 in [5].
For “PEX14 (bait, IN format) (from UniProt O75381 1-377)”, the PLU mean in assay [12] came to 0.31; in [13] it was 2.17.
“PRKAR2A (bait, IN format) (from UniProt P13861 1-404)”: the figures for the PLU mean in assay [14] and in [15] were 0.123 and 0.186, respectively.
For “SMAD1 (bait, IN format) (from UniProt Q15797 1-465)”, the results for the PLU mean in [16] and in [17] were 0.151 and 0.182, respectively.
“CCND3 (bait, IN format) (from UniProt P30281 1-292)” had a PLU mean in [18] of 2.72.
“TP53 (bait, IN format) (from UniProt P04637 1-393)” gave a PLU mean in [19] of 0.194.
Take “FABP5 (bait, IN format) (from UniProt Q01469 1-135)”: the figures for the PLU mean in [20] and in assay [2] were 0.174 and 0.134, respectively.
“PSMD4 (bait, IN format) (from UniProt P55036 1-377)”: the PLU mean in assay [21] was 0.845; in assay [22], 0.919; in assay [23] it was 0.108.
As to “GRB2 (bait, IN format) (from UniProt P62993 1-217)”, the PLU mean in assay [24] is 0.223; in assay [25] it was 0.0588; in assay [20] it was 0.741; in assay [5], 1.39.
“GTF2F1 (bait, IN format) (from UniProt P35269 1-517)”: the PLU mean is 3.24 in assay [10] and 0.133 in assay [21].
On to “CRK (bait, IN format) (from UniProt P46108 1-304)”, for which the PLU mean in assay [26] was 0.261; in assay [19], 0.153.

The values are drawn from US20220229068A1, “DETECTION OF PROTEIN TO PROTEIN INTERACTIONS” (THE GOVERNING COUNCIL OF THE UNIVERSITY OF TORONTO, priority 2019, published 2022).
